Patent publication US20170306030A1

Biological target: EGF receptor (UniProt P00533)
Assay: cell-based or functional assay

| specificity of IFNα signaling, Daudi-EGFR against parental Daudi cells | Substance | inhibition of proliferation and survival of Daudi-EGFR cells (WST-1), potency against the corresponding IFNα2a mutant alone |
| --- | --- | --- |
| – | IFNα-2a (R144A) - (Gly4Ser)7 - EGF chimeric activator (from UniProt P01563 24-188; P01133 23-1207) | 100 fold |
| > 20 fold | IFNα-2a (R149A) - (Gly4Ser)7 - EGF chimeric activator (from UniProt P01563 24-188; P01133 23-1207) | – |
